Values of other authors in PMC6191370.

Tests used:
[1] = target: intermediate-affinity IL-2R (beta/gamma chains) (Homo sapiens) (UniProt P14784)
[2] = target: CD25 (Homo sapiens) (UniProt P01589)
UniProt P01589, sequence (P01589 22-240): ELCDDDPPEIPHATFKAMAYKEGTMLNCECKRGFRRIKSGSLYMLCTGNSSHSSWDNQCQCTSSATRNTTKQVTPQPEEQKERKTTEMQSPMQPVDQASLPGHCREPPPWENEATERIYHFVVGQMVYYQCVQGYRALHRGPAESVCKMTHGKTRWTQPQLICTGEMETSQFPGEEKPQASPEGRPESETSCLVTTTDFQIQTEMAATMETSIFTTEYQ

UniProt P14784, sequence (P14784 27-240, chain 1 of 2): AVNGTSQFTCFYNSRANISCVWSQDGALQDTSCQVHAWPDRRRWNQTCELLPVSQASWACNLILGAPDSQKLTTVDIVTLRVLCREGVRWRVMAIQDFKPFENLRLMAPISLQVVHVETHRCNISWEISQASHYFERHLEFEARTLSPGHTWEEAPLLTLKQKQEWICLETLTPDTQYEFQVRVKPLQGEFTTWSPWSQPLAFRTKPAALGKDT
UniProt P14784, sequence (P31785 23-262, chain 2 of 2, further chain): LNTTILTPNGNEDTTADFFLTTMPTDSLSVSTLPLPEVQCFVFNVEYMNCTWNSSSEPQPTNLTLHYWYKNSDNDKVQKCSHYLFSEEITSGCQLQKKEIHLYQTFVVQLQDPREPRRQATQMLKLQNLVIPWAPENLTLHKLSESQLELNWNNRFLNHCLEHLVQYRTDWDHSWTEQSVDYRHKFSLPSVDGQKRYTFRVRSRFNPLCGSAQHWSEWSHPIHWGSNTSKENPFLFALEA

**Q.** For IL-2 (from UniProt P60568), which Kd [1] is on record?
**A.** 1 nM

**Q.** And the Kd [2]?
**A.** 10 nM
